Earlier results on one substance are cited in publication PMC10093836, “Stabilization of the Dimeric State of SARS-CoV-2 Main Protease by GC376 and Nirmatrelvir” (International Journal of Molecular Sciences, 2023).

By Kd is commonly meant the concentration at which binding is half-saturated.

The series addresses Mpro (SARS-CoV-2) (UniProt P0DTD1).

As to Mpro (from UniProt P0DTD1), the dissociation constant Kd was 7 µM.
